# B1: Hairpin Ribozyme (parent)
# chain: GUCCUCUUUCACGUGCGCGUGAAAGAGAGAAGUGAACCAGAGAAACACACGUUGUGGUAUAUUACCUGGUA
# Variants of: B1
# Assay: self-cleavage, relative activity (ratio to wild type); higher = more cleavage; co-transcriptional
row,Variant,self-cleavage
1,GUCCUCUUUCACGUGCGCGUGAAAGAGAGCAGUGAACCAGAGAAACACAAGUUGUGGUAUAUUACCUGGUA [A30C C50A],0.0998
2,GUCCUCUUUCACGUGCGCGUGAAAGAGAUAAGUGAACCAGAGAAACACACGUUGUGGUAUAUUACCUGUUA [G29U G69U],0.099
3,GUCCUCUUUCACGUGCGCGUGAAAGAGAUAAGUGAACCAGAGAAACACACGUUGUGGUAAAUUACCUGGUA [G29U U60A],0.169
4,GUCCUCUUUCACGUGCGCGUGAAAGAGAUAAGUGAACCAGAGAAACACACGUUCUGGUAUAUUACCUGGUA [G29U G54C],0.12
5,GUCCUCUUUCACGUGCGCGUGAAAGAGAGCAGUGAACCAGAGAAACGCACGUUGUGGUAUAUUACCUGGUA [A30C A47G],0.0558
6,GUCCUCUUUCACGUGCGCGUGAAAGAGAUAAGUGAACCAGAGAAACACACGUUGUGGUAUAUUACCUAGUA [G29U G68A],0.097
7,GUCCUCUUUCACGUGCGCGUGAAAGAGAGCAGUGAACCAGAGAAACACACGUUGUGGUAUAUUACAUGGUA [A30C C66A],0.0863
8,GUCCUCUUUCACGUGCGCGUGAAAGAGAUAAGUGAACCAGAGAAACACACGUUGUGAUAUAUUACCUGGUA [G29U G57A],0.172
9,GUCCUCUUUCACGUGCGCGUGAAAGAGAUAAGUGAACCAGAGAAACACAUGUUGUGGUAUAUUACCUGGUA [G29U C50U],0.163
10,GUCCUCUUUCACGUGCGCGUGAAAGAGAGCACUGAACCAGAGAAACACACGUUGUGGUAUAUUACCUGGUA [A30C G32C],0.12
11,GUCCUCUUUCACGUGCGCGUGAAAGAGAGCAUUGAACCAGAGAAACACACGUUGUGGUAUAUUACCUGGUA [A30C G32U],0.188
12,GUCCUCUUUCACGUGCGCGUGAAAGAGAGCAGUGAACCAGAGAAACACACGUUGUGGUAUAAUACCUGGUA [A30C U62A],0
13,GUCCUCUUUCACGUGCGCGUGAAAGAGAUAAGUGAACCAGAGAAACACACGUUGUGGUAUAUCACCUGGUA [G29U U63C],0.084
14,GUCCUCUUUCACGUGCGCGUGAAAGAGAGCAGUGAAUCAGAGAAACACACGUUGUGGUAUAUUACCUGGUA [A30C C37U],0.0704
15,GUCCUCUUUCACGUGCGCGUGAAAGAGAGCAGUGAAGCAGAGAAACACACGUUGUGGUAUAUUACCUGGUA [A30C C37G],0.277
16,GUCCUCUUUCACGUGCGCGUGAAAGAGAGCAGUGAACCAGAGAGACACACGUUGUGGUAUAUUACCUGGUA [A30C A44G],0.145
17,GUCCUCUUUCACGUGCGCGUGAAAGAGAGCAGUGAACCAGAGAUACACACGUUGUGGUAUAUUACCUGGUA [A30C A44U],0.106
18,GUCCUCUUUCACGUGCGCGUGAAAGAGAUAAGUGAAUCAGAGAAACACACGUUGUGGUAUAUUACCUGGUA [G29U C37U],0.192
19,GUCCUCUUUCACGUGCGCGUGAAAGAGAGCAGUGAACCACAGAAACACACGUUGUGGUAUAUUACCUGGUA [A30C G40C],0.0198
20,GUCCUCUUUCACGUGCGCGUGAAAGAGAGCAGUGAACCAAAGAAACACACGUUGUGGUAUAUUACCUGGUA [A30C G40A],0.116
21,GUCCUCUUUCACGUGCGCGUGAAAGAGAGCAGUGAACCAUAGAAACACACGUUGUGGUAUAUUACCUGGUA [A30C G40U],0.0963
22,GUCCUCUUUCACGUGCGCGUGAAAGAGAGCAGUGAACCAGAGAAACACACGUUGUCGUAUAUUACCUGGUA [A30C G56C],0.0453
23,GUCCUCUUUCACGUGCGCGUGAAAGAGAGCAGUGAACCAGAGAAACACACGUUGUAGUAUAUUACCUGGUA [A30C G56A],0.194
24,GUCCUCUUUCACGUGCGCGUGAAAGAGAGCAGUGAACCAGAGCAACACACGUUGUGGUAUAUUACCUGGUA [A30C A43C],0.261
25,GUCCUCUUUCACGUGCGCGUGAAAGAGAGCAGUGAACCAGAGAAACACACAUUGUGGUAUAUUACCUGGUA [A30C G51A],0.26
26,GUCCUCUUUCACGUGCGCGUGAAAGAGAGCAGUGAACCAGAGAAACACACUUUGUGGUAUAUUACCUGGUA [A30C G51U],0.178

row,Variant,self-cleavage
1,GUCCUCUUUCACGUGCGCGUGAAAGAGAGCAGUGAACCAGAGAAACACACCUUGUGGUAUAUUACCUGGUA [A30C G51C],0.0477
2,GUCCUCUUUCACGUGCGCGUGAAAGAGAUAAGUGAACCAGAGAAACACACGUUGUGGUAUAUUACCUGGUC [G29U A71C],0.152
3,GUCCUCUUUCACGUGCGCGUGAAAGAGAUAAGUGAACCAGAGAAACACACAUUGUGGUAUAUUACCUGGUA [G29U G51A],0.139
4,GUCCUCUUUCACGUGCGCGUGAAAGAGAUAAGUGAACCAGAGAAACACACUUUGUGGUAUAUUACCUGGUA [G29U G51U],0.121
5,GUCCUCUUUCACGUGCGCGUGAAAGAGAUAAGUGAACCAGAGAAACACACGCUGUGGUAUAUUACCUGGUA [G29U U52C],0.178
6,GUCCUCUUUCACGUGCGCGUGAAAGAGAUAAGUGAACCAGAGAAACACACGUAGUGGUAUAUUACCUGGUA [G29U U53A],0.103
7,GUCCUCUUUCACGUGCGCGUGAAAGAGAGCAGUGAACCAGAGAAACACACGUUGUGGUAUAUUACCUAGUA [A30C G68A],0.0646
8,GUCCUCUUUCACGUGCGCGUGAAAGAGAGCAGUGAACCAGAGAAACACACGUAGUGGUAUAUUACCUGGUA [A30C U53A],0.0771
9,GUCCUCUUUCACGUGCGCGUGAAAGAGAGCAGUGAACCAGAGAAACACACGUUGGGGUAUAUUACCUGGUA [A30C U55G],0.0965
10,GUCCUCUUUCACGUGCGCGUGAAAGAGAGCAGUGAACCAGAGAAACACACGUUGUGGUAUAUUACCUGGUU [A30C A71U],0.104
11,GUCCUCUUUCACGUGCGCGUGAAAGAGAGCAGUGUACCAGAGAAACACACGUUGUGGUAUAUUACCUGGUA [A30C A35U],0.156
12,GUCCUCUUUCACGUGCGCGUGAAAGAGAGCAGUGGACCAGAGAAACACACGUUGUGGUAUAUUACCUGGUA [A30C A35G],0.217
13,GUCCUCUUUCACGUGCGCGUGAAAGAGAGCAGUGAACCAGAGAAACACACGUUGUGGUAUAUUCCCUGGUA [A30C A64C],0.127
14,GUCCUCUUUCACGUGCGCGUGAAAGAGAGCAGUGAACCAGAGAAACACACGUUGUGGUAUAUUUCCUGGUA [A30C A64U],0.211
15,GUCCUCUUUCACGUGCGCGUGAAAGAGAGCAGUGAACCAGAGAAACACACGUUGUGGUAUAUUGCCUGGUA [A30C A64G],0.0788
16,GUCCUCUUUCACGUGCGCGUGAAAGAGAGCAGUGAACCCGAGAAACACACGUUGUGGUAUAUUACCUGGUA [A30C A39C],0.12
17,GUCCUCUUUCACGUGCGCGUGAAAGAGAGCAGUGAACCUGAGAAACACACGUUGUGGUAUAUUACCUGGUA [A30C A39U],0.0707
18,GUCCUCUUUCACGUGCGCGUGAAAGAGAGCAGUGAACUAGAGAAACACACGUUGUGGUAUAUUACCUGGUA [A30C C38U],0.209
19,GUCCUCUUUCACGUGCGCGUGAAAGAGAGCAGUGAACGAGAGAAACACACGUUGUGGUAUAUUACCUGGUA [A30C C38G],0.0718
20,GUCCUCUUUCACGUGCGCGUGAAAGAGAGCAGUGAACAAGAGAAACACACGUUGUGGUAUAUUACCUGGUA [A30C C38A],0.183
21,GUCCUCUUUCACGUGCGCGUGAAAGAGAGCAGUGAACCAGAUAAACACACGUUGUGGUAUAUUACCUGGUA [A30C G42U],0.111
22,GUCCUCUUUCACGUGCGCGUGAAAGAGAGCAGUGAACCAGAAAAACACACGUUGUGGUAUAUUACCUGGUA [A30C G42A],0.0752
23,GUCCUCUUUCACGUGCGCGUGAAAGAGAGCAGUGAACCAGACAAACACACGUUGUGGUAUAUUACCUGGUA [A30C G42C],0.094
24,GUCCUCUUUCACGUGCGCGUGAAAGAGAGCAGUCAACCAGAGAAACACACGUUGUGGUAUAUUACCUGGUA [A30C G34C],0.79
25,GUCCUCUUUCACGUGCGCGUGAAAGAGAUAAGUGAACCAGAGAAACACACGUUGUGGUAUAUUCCCUGGUA [G29U A64C],0.142
26,GUCCUCUUUCACGUGCGCGUGAAAGAGAGCAGUGAACCAGAGAAACACACGUUGUGGUAUAUUAACUGGUA [A30C C65A],0.0386

row,Variant,self-cleavage
1,GUCCUCUUUCACGUGCGCGUGAAAGAGAGCAGUGAACCAGAGAAACACACGUUGUGGUAUAUUAUCUGGUA [A30C C65U],0.12
2,GUCCUCUUUCACGUGCGCGUGAAAGAGAGCAGUGAACCAGAGAAACACACGUUGUGGUACAUUACCUGGUA [A30C U60C],0.279
3,GUCCUCUUUCACGUGCGCGUGAAAGAGAGCAGUGAACCAGAGAAACACACGUUGUGGUCUAUUACCUGGUA [A30C A59C],0.0289
4,GUCCUCUUUCACGUGCGCGUGAAAGAGAGCAGUGAACCAGAGAAACACACGUUGUGGUUUAUUACCUGGUA [A30C A59U],0.169
5,GUCCUCUUUCACGUGCGCGUGAAAGAGAGCAGUGAACCAGAGAAACACACGUUGUGGUGUAUUACCUGGUA [A30C A59G],0.0647
6,GUCCUCUUUCACGUGCGCGUGAAAGAGAUAAGUGAACCACAGAAACACACGUUGUGGUAUAUUACCUGGUA [G29U G40C],0.0749
7,GUCCUCUUUCACGUGCGCGUGAAAGAGAUAAGUGAACCAUAGAAACACACGUUGUGGUAUAUUACCUGGUA [G29U G40U],0.147
8,GUCCUCUUUCACGUGCGCGUGAAAGAGAUAAGUGAACCAAAGAAACACACGUUGUGGUAUAUUACCUGGUA [G29U G40A],0.121
9,GUCCUCUUUCACGUGCGCGUGAAAGAGAUAAGUGAACCAGAGAAACACACGUUGUUGUAUAUUACCUGGUA [G29U G56U],0.143
10,GUCCUCUUUCACGUGCGCGUGAAAGAGAUAAGUGAACUAGAGAAACACACGUUGUGGUAUAUUACCUGGUA [G29U C38U],0.1
11,GUCCUCUUUCACGUGCGCGUGAAAGAGAUAAGUGAACCAGAGAAACACACGUUGUGGAAUAUUACCUGGUA [G29U U58A],0.154
12,GUCCUCUUUCACGUGCGCGUGAAAGAGAUAAGUGAACCAGAUAAACACACGUUGUGGUAUAUUACCUGGUA [G29U G42U],0.107
13,GUCCUCUUUCACGUGCGCGUGAAAGAGAUAAGUGAACCAGAGAAACACACGUUGUGGUAUAUUACCUGGGA [G29U U70G],0.315
14,GUCCUCUUUCACGUGCGCGUGAAAGAGAGCAGUGAACCAGCGAAACACACGUUGUGGUAUAUUACCUGGUA [A30C A41C],0.315
15,GUCCUCUUUCACGUGCGCGUGAAAGAGAUAAGUGAACCAGAGAAACACACGUUGUGGUAUAUUACAUGGUA [G29U C66A],0.205
16,GUCCUCUUUCACGUGCGCGUGAAAGAGAUAAGUGAACCAGAGAAACACACGUUGUGGUAUAUUACGUGGUA [G29U C66G],0.233
17,GUCCUCUUUCACGUGCGCGUGAAAGAGAUAAGUGAACCAGAGAAACAUACGUUGUGGUAUAUUACCUGGUA [G29U C48U],0.124
18,GUCCUCUUUCACGUGCGCGUGAAAGAGAUAAGUGAACCAGAGAAACAAACGUUGUGGUAUAUUACCUGGUA [G29U C48A],0.0831
19,GUCCUCUUUCACGUGCGCGUGAAAGAGAUAAGUGAACCAGAGAAACACACGUUGUGGUAUAUUAGCUGGUA [G29U C65G],0.0526
20,GUCCUCUUUCACGUGCGCGUGAAAGAGAGCAGUGAACCAGAGAAACAGACGUUGUGGUAUAUUACCUGGUA [A30C C48G],0.126
21,GUCCUCUUUCACGUGCGCGUGAAAGAGAUAAGUUAACCAGAGAAACACACGUUGUGGUAUAUUACCUGGUA [G29U G34U],0.124
22,GUCCUCUUUCACGUGCGCGUGAAAGAGAGCAGUGAACCAGAGAAACACACGUUGUGGUAUGUUACCUGGUA [A30C A61G],0.12
23,GUCCUCUUUCACGUGCGCGUGAAAGAGAGCAGUGAACCAGAGAAACACACGUUGUGGUAUUUUACCUGGUA [A30C A61U],0.097
24,GUCCUCUUUCACGUGCGCGUGAAAGAGAUAAGUGAACCAGAGAAACACACGUUGUGGUAUAUUACCCGGUA [G29U U67C],0.101
